Laboratory results: patent US6040149A, “Assay for identifying agents which act on the ceramide-activated protein kinase, kinase suppressor of ras, and methods of using said agents” (priority 1997, dated 2000)

Columns and labels:
[1] = tested on: ceramide-activated protein kinase; assay: Ceramide-activated protein kinase activity (EGFR peptide) in EL-4 cell fractions; conditions: 10 nM to 1 μM
[2] = tested on: ceramide-activated protein kinase; assay: EGFR peptide phosphorylation in a cell-free system (HL-60 nuclei-free supernate); assay type: biochemical, human (HL-60 cells)
Experimental: Effect of TNF-α on ceramide-activated protein kinase activity. HL-60 cells were incubated in serum-free medium and homogenized (as in FIG. 9). […] ATP (750 μM, 4000 dpm pmol^-1), and 75 μl of reaction buffer. […] Phosphorylated peptide was first run on a C18 Sep-Pak cartridge, then resolved by C18 reverse-phase HPLC (Waters, Milford, Mass.), with a linear gradient of acetonitrile. The peptide eluted at 30% acetonitrile, as determined by monitoring Cerenkov radiation in 1-ml fractions. Background activity was subtracted from each point. (A) Kinetics of TNF-α (30 nM)-stimulated EGFR peptide phosphorylation. Values (mean) represent data from four experiments. (B) Concentration dependence of EGFR peptide phosphorylation at 5 minutes of stimulation with TNF-α (0.01 to 30 nM). Values (mean) represent data derived from duplicate points in two experiments. The SEM of the values in (A) was 18% and the mean range of values in (B) was 3%.
Effect of phospholipases on ceramide-activated protein kinase activity. Nuclei-free supernates, prepared as in FIG. 9, were first incubated with TNF-α (3 nM) or added directly to reaction mixtures that contained various phospholipases; sphingomyelinase (SMase) (1×10^-3 U ml^-1, S. aureus), phospholipase A2 (PlA2) (3.8×10^-2 and 3.8×10^-1 U ml^-1, Vipera ruselli), phospholipase C (PLC) (3.8×10^-2 U ml^-1, Bacillus cereus) and phospholipase D (PLD) (3.8×10^-2 U ml^-1, Streptomyces chromocuscus). Peptide phosphorylation was measured as in FIG. 10. Control value represents peptide phosphorylation in the absence of phospholipases or TNF-α. Values (mean±SEM) represent data derived from duplicate samples in three experiments. *P<0.001 compared to control.
The effect of TNF-α on ceramide-activated protein kinase activity was assessed. […] For studies assessing the effect of TNFα in broken cell preparations, nuclei-free supernates were incubated under conditions sufficient for stimulation of neutral sphingomyelinase in a reaction mixture that also contained EGFR peptide and γ-^32 P-labeled ATP. Phosphorylated peptide was resolved by high-performance liquid chromatograph (HPLC) and quantified by Cerenkov counting. Kinase activity was calculated from the specific activity of [γ-^32 P] ATP and incorporation of ^32 P into EGFR peptide. Background activity was subtracted from each point. […] TNF-α stimulation of kinase activity was evident by 1 minute and demonstrable for at least 10 minutes. If the initial incubation with TNF-α at 4° C. was omitted and TNF was added directly to the reaction mixture at 22° C., the reaction was delayed. […] TNF-α enhanced kinase activity in a concentration-dependent manner at 5 minutes (FIG. 10B). […] This is similar to the ED50 of 200 pM for stimulation of ceramide-activated protein kinase by TNF-α in intact cells. TNF-α enhanced kinase activity in a total of 20 separate studies.
Control activity reflects several TNF-α-independent protein kinases that are known to phosphorylate EGFR peptide on Thr^669.

CCCCCCCCCCCCC/C=C/[C@@H](O)[C@@H](N)CO [sphingosine]
enhancement of kinase activity, of control [1]: 1.5-2.5 of control

TNF-α
concentration of maximal effect (kinase activity) ([2]; 5 minutes): 3 nM
effective concentration (kinase activity) ([2]; 5 minutes): 10 pM
ED50 for kinase activity ([2]; 5 minutes, cell-free): ≈ 300 pM
onset of stimulation of kinase activity ([2]; TNF-α 30 nM, P<0.001): ≤ 1 min
